Here are results for 31 sequences from the supplement of paper PMC9170038.

The test system of this data set is MS2 coat protein. Description: apparent KD of MS2 coat protein; designed switch direction (-1 OFF switch, 1 ON switch): -1; higher = weaker reporter binding. Put shortly:
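SNAP-549-labelled MS2 coat protein was titrated, doubling from 0.7 or 1.5 nM to 3 µM, over designed RNA switches transcribed on Illumina chips by stalled E. coli RNA polymerase. Runs were done without input, with 200 uM small-molecule ligand, or with an oligonucleotide input. Apparent KD is the per-design median over clusters of curve-fitted normalised fluorescence.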

Where [1] appears, read: Eterna round: R95, input ligand: FMN 200 uM.
[2] abbreviates: Eterna round: R95, input ligand: microRNA oligo, concentration not stated.
Setting [3] is: Eterna round: R95, input ligand: none.
Where [4] appears, read: input ligand: microRNA oligo, concentration not stated.

Turning to “AAGUACCGUCACGAAAGUGAUGGUACAGCAAGCAAAUGUACAUGAGGAUCACCCAUGUCCUCAAUUGCUCGUCUUAU [Sensor 3 - 58] (puzzle: Sensor v3, turn-off variant 2)”, the “apparent KD of MS2 coat protein” value runs as follows: under setting [1], 81.7 nM; under setting [2], 181 nM; under setting [3], 87.4 nM.

On to “UGUUAUAGAGGAUAUGCGUGAAAAUAGAUUCAUGGAAAUUUACAUGAGGAUCACCCAUGUAGAAGGCUGUGAUU [LRO-Excl2-15-mod 090 by JR] (Eterna round: R97, puzzle: Exclusion 2)”, for which the “apparent KD of MS2 coat protein” value was 14.8 nM (input ligand: FMN 200 uM) and 14.7 nM (input ligand: none).

On to “ACAUGUCAUCGAGGAUAUUGGACACAUGAGGAUCACCCAUGUACUCGGAUGCUCUACCAUGAGUUCGAGAAGGCGAUGUACAUU [Ex NG2 #78] (Eterna round: R96, puzzle: Exclusion NG 2)”, for which the “apparent KD of MS2 coat protein” value stood at 31.9 nM (input ligand: FMN 200 uM), 94.3 nM under setting [4] and 181 nM (input ligand: none).

In the case of “GUCAGCUCGUCAGGAUAUACAUGAGGAUCACCCAUGUGGUCAAUAGCAGCUUCGGCUGCAUACAUGUAGAAGGGACGAGCUGAC [ENG2/7-B1] (Eterna round: R96, puzzle: Exclusion NG 2)”, the “apparent KD of MS2 coat protein” value came to 18.8 nM (input ligand: FMN 200 uM), 6.88 nM under setting [4] and 78.2 nM (input ligand: none).

As for “GGCCCUAGGGUCAGACGCACAAGCUUUUUGCUCGUUUUAACAUGAGGAUCACCCAUGUCUAGUGGAUCUGAUCGGGU [Mausinonra] (Eterna round: R96, puzzle: Sensor v3, turn-off variant 2)”, the “apparent KD of MS2 coat protein” value is, setting by setting: (input ligand: FMN 200 uM) 19.6 nM; under setting [4], 96.8 nM; (input ligand: none) 25.8 nM.

Turning to “GAUCAACAUGAGGAUCACCCAUGUGAGGAUAUGCGAGAAUAGACUUCGGUCAGAUAGAGCAGAAGGCGCAGAUA [EX1 #3] (Eterna round: R97, puzzle: Exclusion 1)”, the “apparent KD of MS2 coat protein” value (input ligand: FMN 200 uM) amounted to 63.7 nM and the “apparent KD of MS2 coat protein” value (input ligand: none) was determined as 37.9 nM.

Regarding “GAGAGGUCAGGAUAUACGGAGAGAGGGAGUAGGUGAGGGUAACAUGAGGAUCACCCAUGUAGAAGGGACUAAGG [JR_Exclu2_Sub076] (puzzle: Exclusion 2)”, the “apparent KD of MS2 coat protein” value worked out at 26.4 nM under setting [1], 27.4 nM under setting [2] and 39.9 nM under setting [3].

For “UGAGAGUCAGGAUAUCGAAGGUAGUGGAGAGGAGUGUGGUACGAGAAGGGACAUGAGGAUCACCCAUGUAGGUG [JR_Exclusion4)Sub009] (puzzle: Exclusion 4)”, the “apparent KD of MS2 coat protein” value under setting [2] was found to be 420 nM.

Turning to “GUCAGCUCGUGAGGAUAUAUUAACAUGAGGAUCACCCAUGUAAGAUCAGGCUUCGGCCAAUGUUAAUAGAAGGCACGAGCUGAC [ENG2/12-A1] (Eterna round: R96, puzzle: Exclusion NG 2)”, the “apparent KD of MS2 coat protein” value came to 739 nM (input ligand: FMN 200 uM), 38.9 nM under setting [4] and 72.9 nM (input ligand: none).

Regarding “CAGUACUGAGGAUAUACAUGAGGAUCACCCAUGUCCUAAAAGUAGGAUACUACUAUUAGUAGAAGGCAGUACUG [Fiskers Ex 3 828 mod 23] (puzzle: Exclusion 3)”, the “apparent KD of MS2 coat protein” value under setting [2] came to 18.1 nM.

For the sequence “CUGCUCCGUGUAGGAUAUCCCGGCAACCAAUCGGGAGAAGGACAUGAGGAUCACCCAUGUAUGUUAUUAUCACGUGAAGCGUCC [Design 27] (Eterna round: R96, puzzle: Exclusion NG 1)”, the “apparent KD of MS2 coat protein” value under setting [4] turned out to be 16.3 nM.

For “UUUAAUUUUUUUUUUUUACAAGCUUUUUGCUCGUCUUAUACAUGAGGAUCACCCAUGUAGGUGAAAGAUAAAUUAUC [JMF 4] (puzzle: Sensor v3, turn-off variant 2)”, the “apparent KD of MS2 coat protein” value turned out to be 31.5 nM under setting [1], 77.5 nM under setting [2] and 33.5 nM under setting [3].

As for “CUCUAACACGCAGGAUAUGCAUCACCAUAAUUAGCAGAAGGGCGAAACACAUGAGGAUCACCCAUGUUGAGGAUCACCCAUGAC [Default title] (Eterna round: R96, puzzle: Exclusion NG 1)”, the “apparent KD of MS2 coat protein” value came out at 22.1 nM (input ligand: FMN 200 uM), 19.9 nM under setting [4] and 23.6 nM (input ligand: none).

For “UUAGAGUAAUAGGAUAUGCUACGUCACGGCUGUGCAGAAGGAUUAACAUGAGGAUCACCCAUGUGGUGAGUCCU [Eternabot (L1) Solution 31] (Eterna round: R97, puzzle: Exclusion 6)”, the “apparent KD of MS2 coat protein” value was 242 nM (input ligand: FMN 200 uM) and 985 nM (input ligand: none).

Regarding “GAUUUAGAGCAGGAUAUCAUAGAAAUGUAUGAAUGAGAAGGGCUCACAUGAGGAUCACCCAUGUGGUCCUAGAU [JL Dibiri mod 20] (Eterna round: R96, puzzle: Exclusion 6)”, under setting [4], the “apparent KD of MS2 coat protein” value worked out at 21.6 nM.

For the sequence “GGUCAGACGGUAGGAUAUCCAUAUUGAGUGACCCUUUCAUAACAUGAGGAUCACCCAUGUCGGUGGGAGAAGGGCCGUACGGCG [salish99_ExNG02_R04_006] (Eterna round: R96, puzzle: Exclusion NG 2)”, the “apparent KD of MS2 coat protein” value is, setting by setting: (input ligand: FMN 200 uM) 205 nM; under setting [4], 214 nM; (input ligand: none) 411 nM.

“CAGCACUCAGGAUAUACAUGAGGAUCACCCAUGUGUGAACAAGUGAGUGAUUUCCCAUGUAGAAGGGAGAGAUU [Exclusion 3 S1] (Eterna round: R97, puzzle: Exclusion 3)”: the “apparent KD of MS2 coat protein” value is, setting by setting: (input ligand: FMN 200 uM) 183 nM; (input ligand: none) 98.2 nM.

On to “GCUGGUCGAGGAUAUACAUGAGGAUCACCCAUGUGGUCACGUGACUUCGGUCACGAAUGUAGAAGGCGACCAGC [E3/3-A4] (Eterna round: R97, puzzle: Exclusion 3)”, for which the “apparent KD of MS2 coat protein” value is 65.8 nM (input ligand: FMN 200 uM) and 610 nM (input ligand: none).

With “AAUUUACAUGAGGAUCACCCAUGUCAGGAUAUGGUUUUAUUUUUUUCUUUUCUUGAUUCCAGAAGGGACAGCUA (puzzle: Exclusion 1)”, the “apparent KD of MS2 coat protein” value under setting [2] is 82.2 nM.

Regarding “AGUAACCGUCACGAAAGUGAUGGUUACGCAAGCAAUGAAACAUGAGGAUCACCCAUGUCCUCAUUUGCUCGUCUUAU [Sensor 3 - 41] (puzzle: Sensor v3, turn-off variant 2)”, the “apparent KD of MS2 coat protein” value under setting [1] is 24.6 nM, the “apparent KD of MS2 coat protein” value under setting [2] was 347 nM and the “apparent KD of MS2 coat protein” value under setting [3] came out at 25.7 nM.

Take “CAGUACUACAAGCUUAGGGACAUGAGGAUCACCCAUGUUCGUCUUAUUGAUCUAGGUACGCUGACGUACCUAGAUCU [JL-sv1-2.12 Brourd mod] (puzzle: Sensor v3, turn-off variant 1)”: the “apparent KD of MS2 coat protein” value is 15.7 nM under setting [1], 29.9 nM under setting [2] and 15 nM under setting [3].

Turning to “GGUAAGCUAGGAUAUGCUUUGGGAAAGCAUUCCUUCGAUAAACUUGAGGAUCACCCAAGUAGAAGGAGCUUACG [salish99_ex2_r4_015] (Eterna round: R97, puzzle: Exclusion 2)”, the “apparent KD of MS2 coat protein” value was 16.7 nM (input ligand: FMN 200 uM) and 12.8 nM (input ligand: none).

Turning to “AUGAUGUGAGGAUAUUAGUAGGGUAGCAGAUGACUGCCUAAUAAGAAGGCACAUGAGGAUCACCCAUGUUCACU [Eternabot (L2) Solution 11] (Eterna round: R97, puzzle: Exclusion 4)”, the “apparent KD of MS2 coat protein” value by setting is: (input ligand: FMN 200 uM) 135 nM; (input ligand: none) 63.5 nM.

On to “AAUUAUUGAUGAGGAUAUUGUGGUGAAACACGACAAGAAGGCAUUAUUCACAUGAGGAUCACCCAUGUGAGCCUGAUGCAUAUA [Ex NG1 #60] (Eterna round: R96, puzzle: Exclusion NG 1)”, for which the “apparent KD of MS2 coat protein” value under setting [4] turned out to be 11.5 nM.

With “AAAUAAUAGAUAAAAUAAUACAUGAGGAUCACCCAUGUGGGAUGCUGAGGGUGAUACAGGCUUUUUGCUCGUCUUAU (puzzle: Sensor v3, turn-off variant 1)”, the “apparent KD of MS2 coat protein” value runs as follows: under setting [1], 78.7 nM; under setting [2], 16.3 nM; under setting [3], 99.9 nM.

With “AGAGCUGCCCAUGACCGCAAGCUUUUUGCUUGUCUUACCACAUGAGGAUCACCCAUGUGACAUGGGCUCCUUAUAAA [Azavees] (puzzle: Sensor v3, turn-off variant 2)”, the “apparent KD of MS2 coat protein” value by setting is: under setting [1], 13.9 nM; under setting [2], 9.41 nM; under setting [3], 13.3 nM.

As for “GCGCCAUCGUGAGAUGGCGUACCGACAUGAGGAUCACCCAUGUAGGAUAUCGAUUGCUUUGCAGUCGAGAAGGGCAUGAUAAGU [JL ENG3 3.77] (Eterna round: R96, puzzle: Exclusion NG 3)”, the “apparent KD of MS2 coat protein” value (input ligand: FMN 200 uM) turned out to be 20.9 nM, the “apparent KD of MS2 coat protein” value under setting [4] came to 13.4 nM and the “apparent KD of MS2 coat protein” value (input ligand: none) stood at 21.4 nM.

“GUCCAGAUAGGAUAUUGUAAGGGCAACAUGAGGAUCACCCAUGUCGCAAAGAUCGCCCUUCGAGAAGGGUCCAAUU [Eternabot (L1) Solution 39] (Eterna round: R97, puzzle: Exclusion 5)”: the “apparent KD of MS2 coat protein” value (input ligand: FMN 200 uM) was 15.7 nM and the “apparent KD of MS2 coat protein” value (input ligand: none) came to 17.6 nM.

Regarding “AAAUUGGUAGAGGAUAUCGUACAGGAAACACUGCGAGAAGGCUGCACAUGAGGAUCACCCAUGUUCAGUUGCGA [EX6 #39] (Eterna round: R97, puzzle: Exclusion 6)”, the “apparent KD of MS2 coat protein” value (input ligand: FMN 200 uM) stood at 17.3 nM and the “apparent KD of MS2 coat protein” value (input ligand: none) came out at 14.5 nM.

Turning to “CGUAGUCUUCGGACUACGAACAUGAGGAUCACCCAUGUAAUGAGCAGAUCUUCAUGCAAGCUUUUUGCUCGUCUUAU [Sensor v3 - turn-off variant 1 - 43] (puzzle: Sensor v3, turn-off variant 1)”, the “apparent KD of MS2 coat protein” value under setting [1] is 148 nM, the “apparent KD of MS2 coat protein” value under setting [2] was determined as 14.7 nM and the “apparent KD of MS2 coat protein” value under setting [3] was found to be 227 nM.

For the sequence “CCACGACAUGAGGAUCACCCAUGUGAGGAUAUGGCCUGUAAAGCGUGAGCUGAAUCAAUCAGAAGGCGCGUGGG [salish99_ex1_r4_058] (Eterna round: R97, puzzle: Exclusion 1)”, the “apparent KD of MS2 coat protein” value came out at 119 nM (input ligand: FMN 200 uM) and 46.1 nM (input ligand: none).
